PMC3633087

Biological target: p11-AnxA2 peptide cassette (UniProt P60903)
Assay: crystal structure

- stoichiometry N: 2
Substance: p11-AnxA2 peptide cassette (from UniProt P60903 1-97)
